Reference: patent US20040146964A1 (ISIS INNOVATION, published 2004)
Substitutions are numbered along the chain they refer to. Names may count otherwise. Where no end group is shown, it is not given here. [ ]: non-standard residue; d: D form. Hyp = O=C(O)[C@@H]1C[C@@H](O)CN1

Experiments:
[1] = molecular target: T1, mutant (Pro86His) pVHL (human, UniProt P40337 1-213); assay: biotinylated peptide capture on streptavidin beads
T1 construct: also called mutant pVHL
Description: (§1) The 19:WT polypeptide was either incubated with cell extract before the binding assay or was untreated.

[2] = molecular target: T2, VHL E3 ubiquitin ligase complex containing HA tagged human pVHL (human, UniProt P40337 1-213); assay: VHL E3 interaction assay with 35S-labelled IVTT product
T2 construct: also called VHL E3 ligase; 786-0/VHL cell extract
T2 sequence (P40337 whole entry, one chain of several): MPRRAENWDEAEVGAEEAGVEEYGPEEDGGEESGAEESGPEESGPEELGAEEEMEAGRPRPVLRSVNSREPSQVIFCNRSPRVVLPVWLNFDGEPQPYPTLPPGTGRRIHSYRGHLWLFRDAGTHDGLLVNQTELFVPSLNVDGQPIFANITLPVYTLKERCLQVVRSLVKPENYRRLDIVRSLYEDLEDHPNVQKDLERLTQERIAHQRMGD

[3] = molecular target: T1, mutant (Pro86His) pVHL; assay: biotinylated peptide, after cell extract, capture on streptavidin beads
Description: as §1

[4] = molecular target: T3, C. elegans HIF P621G mutant (C. elegans, UniProt G5EGD2 1-719); assay: anti-HA co-IP of IVTT products
T3 construct: also called ceHIF Pro621-Gly; pcDNA1cehif.P621G
T3 sequence: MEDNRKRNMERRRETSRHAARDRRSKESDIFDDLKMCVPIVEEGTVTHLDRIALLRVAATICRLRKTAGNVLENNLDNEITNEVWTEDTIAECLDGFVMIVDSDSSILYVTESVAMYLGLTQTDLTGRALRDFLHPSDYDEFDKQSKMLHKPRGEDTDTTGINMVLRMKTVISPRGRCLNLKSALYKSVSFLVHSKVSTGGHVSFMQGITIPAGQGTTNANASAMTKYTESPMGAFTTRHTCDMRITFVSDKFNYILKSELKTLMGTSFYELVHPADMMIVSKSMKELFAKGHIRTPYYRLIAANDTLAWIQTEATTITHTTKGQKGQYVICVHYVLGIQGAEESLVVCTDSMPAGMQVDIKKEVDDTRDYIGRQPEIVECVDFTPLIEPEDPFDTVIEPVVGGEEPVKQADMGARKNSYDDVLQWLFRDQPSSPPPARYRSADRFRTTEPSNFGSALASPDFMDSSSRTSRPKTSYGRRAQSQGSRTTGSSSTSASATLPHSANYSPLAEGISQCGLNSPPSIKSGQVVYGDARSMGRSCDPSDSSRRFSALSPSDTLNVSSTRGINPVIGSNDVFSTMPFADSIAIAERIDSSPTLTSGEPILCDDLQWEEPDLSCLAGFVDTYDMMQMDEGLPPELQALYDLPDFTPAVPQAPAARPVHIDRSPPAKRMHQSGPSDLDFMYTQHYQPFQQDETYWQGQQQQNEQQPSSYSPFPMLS
Description: (§2) For interaction assays 1 μl of each programmed lysate was mixed in EBC buffer at 4° C. for 1 hr before anti-HA immunoprecipitation as described in Cockman et al. Pretreatment of ceHIF with worm extract was for 30 min at 25° C. with 10 μI of extract derived by hypotonic extraction of a worm homogenate in 20 mM Tris pH7.5, 5 mMKCl, 1.5 MgCl2, 1 mMDTT.

[5] = molecular target: T4, C. elegans HIF-α homologue, wild type (C. elegans, UniProt G5EGD2 1-719); assay: anti-HA co-IP of reticulocyte IVTTs, ceHIF pre-treated with worm extract
T4 construct: 35S-labelled reticulocyte IVTT from pcDNA1cehif; also called ceHIF; HIF-1 (C. elegans)
T4 sequence: T3 sequence with G621P
Description: as §2

T1 sequence (P40337 whole entry P86H): as the sequence (P40337 whole entry, one chain of several) above, with P86H counted along it

DLDLEMLA[Hyp]YIPMDDDFQL (also: biotinylated version used in pVHL capture assays, also called 19:Pro564Hyp; B19Hyp)
binding result [1]: no binding

B1: tat-NODD proline mutant (HIF-1α 343-417/P402A) (other)
chain: SGIIQHDLIFSLQQTECVLKPVESSDMKMTQLFTKVESEDTSSLFDKLKKEPDALTLLAAAAGDTIISLDFGSND
binding result [2]: no binding

DLDLEMLAPYIPMDDDFQL (also: biotinylated version used in pVHL capture assays, also called 19:WT; 19 WT) [synthetic polypeptide of HIF-1α residues 556-574, unmodified]
binding result [3]: no binding

B2: c-terminal HA tagged ceVHL (other, not shown: small tags and cut ends)
chain: MSDGSMDDDGRLFPDLGSSTHDNREIRVRFLNRCAYPVDVFWLNPSKQPTKYGTLAQKKYLDIKTFKDHPWVARRSFDGCKVLVNEKEVFWPEPAPRMNLIVRNHCVITMKVQSLREIAGRSFLRHNPTEVPNKIKGLPRELQFEVKHFLDRKQEYSEIVCRSIPPPGPQRPQQ
notes: also called ceVHL-HA
binding result [4]: no binding | binding result [5]: binds

PFSTQDTDLDLEMLAGYIPMDDDFQLRSFDQLSP (other) [tat-CODD proline mutant (HIF-1α 549-582/P564G)]
binding result [2]: no binding
